Assay results published in US20090075925A1, “Methods and Compositions Related to APOBEC-1 Expression” (priority 2006, published 2009).

Molecular target: rat APOBEC-1 (endogenous, rat liver nuclear extract and McArdle cells) (rat)
Test: cell-based or functional assay

“rat ACF64 S154D (from UniProt Q923K9 1-586)” was tested, and the apoB mRNA editing in stable McArdle cell lines was 67%.
